Experimental data from patent publication US20220073643A1.

target: Claudin18.2-His protein (human); experiment: indirect ELISA on coated Claudin18.2-His

| Binder | EC50 [ng/mL] |
| --- | --- |
| 201F4H6 (antibody, V domains shown) VH: QVQLKESGPGLVAPSQSLSITCTVSGFSLTSYGVSWVRQPPGKGLECLGVIWAGGNTNYNSALMSRLSISKDKSKSQVFLKMNSLQTDDTAMYYCARVYYGNAMDYWGQGTSVTVSS VL: DIVMTQSPSSLTVTAGEKVTMSCKSSQSLLNSGNQKSYLTWYQQRPGQPPKLLIYWASTRESGVPDRFTGSGSGTDFTLTISSVQAEDLAVYFCQNVYFFPFTFGSGTKLETK | 119 |
| 409G10G6 (antibody, V domains shown) VH: DVQLVESGGGLVQPGGSRKLSCAASGFTFSGFGMHWIRQTPEKGLEWVAYISSDSRPIYYADTVKGRFTISRDNPKNTLFLQMTSLRSEDTAMYFCGRFYYGNSFDHWGQGTLVTVSA VL: DIVMTQSPSFLTVTAGEKVTLSCRSSQSLLNSGNQRNYLTWYQQKPGQPPKLLIYWASTRESGVPDRFTGSGSGTDFTLTISSVQAEDRALYYCQNAYSFPLTFGTGTKLELR | 9.52 |
| 411A6E3 (antibody, V domains shown) VH: DVQLVESGGGLVQPGGSRKLSCAASGFTFSDFGMHWIRQTPEKGLEWVAYISSGSRPIYYADTVKGRFTISRDNPKNTLFLQMTSLRSEDTAMYFCVRFYFGNSFDHWGQGTLVTVSA VL: DIVMTQSPSFLTVTAGEKVTMTCRSSQNLLNSGNLKNYLTWYQQKPGQPPKLLISWASTRESGVPDRFTGSGSGTDFTLTISSVQPEDLALYYCQNAYSFPLTFGAGTKLELK | 6.74 |
| 200A4H8 (antibody, V domains shown) VH: QVQLKQSGPGLVQPSQSLSITCTVSGFSLTRYGVHWVRQSPGKGLEWLGVIWSGGNTDYNAAFISRLNIRKDNSKSQVFFKMNSLKPNDTAIYYCARAAYFGNSFDYWGQGTTLTVSS VL: DIVMTQSPSSLPVTAGEKVTMSCKSSQSLLNSGNQKNYLTWYQQKPGQPPKLLIYWASTRDSGVPDRFTGSGSGTDFTLTISSVQAEDLAVYYCQNNYIYPLTFGAGTKLELK | 10.5 |
| 203A6C9 (antibody, V domains shown) VH: QVQLKQSGPGLVQPSQSLSITCTVSGFSLTRYGVHWVRQSPGKGLEWLGVIWSGGNTDYNAAFISRLNIRKDNSKSQVFFKMNSLKPNDTAIYYCARAAYFGNSFDYWGQGTTLTVSS VL: DIVMTQSPSSLPVTAGEKVTMSCKSSQSLLNSGNQKNYLTWYQQKPGQPPKLLIYWASTRDSGVPDRFTGSGSGTDFTLTISSVQAEDLAVYYCQNNYIYPLTFGAGTKLELK | 65.4 |
| 410A9A9 (antibody, V domains shown) VH: DVQLVESGGGLVQPGGSRKLSCAASGFTFSSFGMHWVRQAPEKGLEWVAYISSGSSPIYYADTVKGRFTISRDNPKNTLFLQMTSLRSEDTAMYFCATFYYGNSFAYWGQGTLVTVSA VL: DIVMTQSPSSLTVTAGEKVTMSCKSSQTLLNSGNQKNYLTWYQQKSGQPPKLLIYWASTRESGVPDRFTGSGSGTDFTLTISSVQAEDLAVYYCQNAYSYPVTFGSGTKVELK | 20.8 |
| 411B4G4 (antibody, V domains shown) VH: DVQLVESGGGLVQPGGSRKLSCAASGFTFSGFGLHWIRQTPEKGLEWVAYISSGSRPIYYADTVKGRFTISRDNPKNTLFLQMTSLRSEDTAMYFCARFYYGNSFDHWGQGTLVTVSA VL: DIVMTQSPSFLTVTAGEKVTMSCRSSQSLLNSGNQRNYLTWYQQKPGQPPKLLIYWASTRESGVPDRFTGSGSGTDFTLTISSVQAEDLALYYCQNAYSFPLTFGAGTKLELK | 9.45 |
| 410H6H3 (antibody, V domains shown) VH: DVLLVESGGGLVQPGGSRKLSCAASGFTFSSSGMHWVRQAPEKGLEWVAYISSGSNTIYYADTLKGRFTISRDNPKNTLFLQMTSLRSEDTAMYYCARIYYGNSFVYWGQGTLVTVSA VL: DIVMTQSPSSLTVTAGEKVIMSCKSSQSLLNSGNQKNYLTWYQQKPGQPPKMLIYWASTRESGVPDRFRGSGSGTDFTLTISSVQAEDLAVYYCQNNYYYPLTFGTGTKLALK | 2.93 |
| 409D1A7 (antibody, V domains shown) VH: DVQLVESGGGLVQPGGSRKLSCAASGFTFSGFGMHWIRQTPEKGLEWVAYISSGSRPIYYADTVKGRFTISRDNPKNTLFLHMTSLRSEDTAMYFCARFYYGNSFDHWGQGTLVTVSA VL: DIVMTQSPSFLTVTAGEKVTMNCKSSQSLLNSGNQRNYLTWYQQKPGQPPKLLIYWASTRESGVPDRFTGSGSGTDFTLTISSVQAEDLALYYCQNAYSFPLTFGAGTKLELN | 7.75 |

Results, then the binder that gave them:

| EC50 [ng/mL] | Binder |
| --- | --- |
| 42.8 | 417A6F11 (antibody, V domains shown) VH: EVQLQQSGPELVKPGASMKISCKASGYSFTGYTMNWVKQSHGKNLEWIGLINPYNGGTSYNQKFKGKATLTVDKSSSTAYMELLSLTSEDSAVYYCARGDYWGQGTTLTVSS VL: DIVMTQSPSSLTVTAGEKVTMSCKSSQSLLNSGNQKNYLTWYQQKPGQPPKLLIYWASTRESGVPDRFTGSGSGTDFTLTISSVQAEDLAVYYCQNDYSYPTFGAGTKLELK |
| 17.6 | 420F12G8 (antibody, V domains shown) VH: DVQLVESGGGLVQPGGSRKLSCAASGFAFSGFGMHWIRQTPEKGLEWVAYISSGSRPIYYADTVKGRFTISRDNPKNTLFLQMTSLRSEDTAMYFCVRFYYGNSFDHWGQGTLVTVSA VL: DIVMTQSPSFLTVTAGEKVTMTCRSSQNLLNSGNQKNYLTWYQQKPGQPPKLLISWASTRESGVPDRFTGSGSGTDFTLTISSVQPEDLALYYCQNAYSFPFTFGAGTKLELK |
| 5.51 | 419A5F3 (antibody, V domains shown) VH: DVQLVESGGGLVQPGGSRKLSCAASGFTFSGFGMHWIRQTPEKGLEWVAYISSDSRPIYYADTVKGRFTISRDNPKNTLFLQMTSLRSEDTAMYFCGRFYYGNSFDHWGQGTLVTVSA VL: DIVMTQSPSFLTVTAGEKVTLSCRSSQSLLNSGNQRNYLTWYQQKPGQPPKLLIYWASTRESGVPDRFTGSGSGTDFTLTISSVQAEDRALYYCQNAYSFPLTFGTGTKLELR |
| 11.6 | 414H6G2 (antibody, V domains shown) VH: DVQLVESGGGLVQPGGSRKLSCAASGFTFSGFGMHWIRQTAEKGLEWVAYISSGSRPIYYADTVQGRFTISRDNPKNTLFLQMTSLRSEDTAMYFCARFYYGNSFDHWGQGTLVTVSA VL: DIVMTQSPSFLTVTAGEKVTMSCKSSQSLLNSGNQKNYLTWYQQKPGQPPKLLIYWASTRESGVPDRFTGSGSGTDFTLTISSVQAEDLALYYCQNAYSFPLTFGAGTKLELK |
| 3.46 | 413B1C9 (antibody, V domains shown) VH: DVQLVESGGGLVQPGGSRKLSCAASGFTFSSFGMHWVRQAPEKGLEWVAYISSGSSPIYYADTVKGRFTISRDNPKNTLFLQMTSLRSEDTAMYFCARFYYGNSFDHWGQGTLVTVSA VL: DIVMTQSPSSLTVTTGEKVSMSCKSSQSLFNRGNQKSYLTWYQQKPGQPPKLLIYWASTRESGVPDRFTGSGSGTDFTLTISSVQAEDLAVYYCQNNYIYPLTFGAGTKLELK |
| 11.5 | 416F12F3 (antibody, V domains shown) VH: DVQLVESGGGLVQPGGSRKLSCAASGFTFSSFGMHWVRQAPEKGLEWVAYISSGSSTIYYAHSVKGRFTISRDNPKNTLFLQMTSLGSEDTAMYYCARFYYGNSFAYWGQGTLVTVSA VL: DIVMTQSPSSLTVTAGEKVTLSCKSSQSLLNSGNQKNYLTWYQQKPGQPPKMLIYWASTRESGVPDRFTGSGSGTDFTLTISSVQAEDLAVYYCQNAYTYPLTFGAGTRLELK |
| 8.05 | 414A5F7 (antibody, V domains shown) VH: DVQLVESGGGLVQPGGSRKLSCAASGFTFSSFGMHWVRQAPEKGLEWVAYISSGSSPIYYADTVKGRFTISRDNPKNTLFLQMTSLRSEDTAMYFCARIYYGNSFAYWGQGTLVTVSA VL: DIVMTQSPSSLTVTAGEKVAMSCKSSQTLLNSGNQKNYLTWYQQKPGQPPKLLLYWASTRESGVPDRFTGSGSGTDFTLTISSVQAEDLAVYYCQNAYYYPLTFGSGTKLELK |
| 5.43 | 411G3E10 (antibody, V domains shown) VH: DVQLVESGGGLVQPGGSRKLSCAASGFTFSGFGMHWIRQTPEKGLEWVAYISSGSRPIYYADTVKGRFTISRDNPKNTLFLQMTSLRSEDTAMYFCARFYYGNSFDHWGQGTLVTVSA VL: DIVMTQSPSFLTVTAGEKVTMNCRSSQSLLNSGNQKNYLTWYQQKPGQPPKLLIYWASTRESGVPDRFTGSGSGTDFTLTISSVQAEDLALYYCQNAYSFPLTFGAGTKLELK |
| 8.87 | 418B8B10 (antibody, V domains shown) VH: DVQLVESGGGLVQPGGSRKLSCAASGFTFSSFGMHWVRQAPEKGLEWVAYISSGSSPIYYTDTVKGRFTISRDNPKNTLFLQMTSLRSEDTAMYFCARFYYGNSFDHWGQGTLVTVSA VL: DIVMTQSPSSLTVTAGEKVSMSCKSSQSLFNRGNQKSYLTWYQQRPGQPPKLLIYWASTRESGVPDRFTGSGSGTDFTLTISSVQAEDLAVYYCQNNYIYPLTFGAGTKLELK |
| 23.9 | 420D5H5 (antibody, V domains shown) VH: DVQLVESGGGLVQPGGSRKLSCAASGFTLSGFGMHWIRQTPEKGLEWVAYISSGSRPIYYVDTVEGRFTISRDNPKNTLFLQMTSLRSEDTAMYFCARFYYGNSFDHWGQGTLVTVSS VL: DIVMTQSPSFLTVTAGEKVTMSCKSSQSLLNSGNQKNYLTWYQQKPGQPPKLLIYWASTRESGVPDRFTGSGSGTDFTLTIRGVQAEDLALYYCQNAYSFPLTFGAGTKLELK |
| 6.82 | 413C12F8 (antibody, V domains shown) VH: DVQLVESGGGLVQPGGSRKLSCAASGFTFSGFGVHWIRQTPEKGLEWVAYIGSGSRPIYYADTVKGRFTISRDNPKNTLFLQMTSLRSEDTAMYFCARFYYGNSFDHWGQGTLVTVSA VL: DIVMTQSPSFLTVTAGEKVTMNCRSSQSLLNSGNQKNYLTWYQQRPGQPPKLLIYWASTRESGVPDRFTGSGSGTDFTLTISSVQAEDLALYYCQNAYSFPLTFGAGTKLELK |
| 6.31 | 412B6E4 (antibody, V domains shown) VH: DVQLVESGGGLVQPGGSRKLSCAASGFTFSSFGVHWVRQAPEKGLEWVAYISSGSSTIYYAHSVKGRFTISRDNPKNTLFLQMTSLGSEDTATYYCARFYYGNSFAYWGQGTLVTVSA VL: DIVMTQSPSSLTVTAGEKVTMSCKSSQSLLNSGNQKNYLTWYQQKPGQPPKMLIYWASTRESGVPDRFTGSGSGTDFTLTISSVQAEDLAVYYCQNAYTYPLTFGAGTRLELK |
| 6.53 | 419A10D4 (antibody, V domains shown) VH: DVQLVESGGGLVQPGGSRKLSCAASGFTFSGFGMHWIRQTPEKGLEWVAYISSGSRPIYYADTVKGRFTISRDNPKNTLFLQMTSLRSEDTAMYFCARFYYGNSFDHWGQGTLVTVSA VL: DIVMTQSPSFLTVTAGEKVTMSCKSSQSLLNSGNQRNYLTWYQQKPGQPPKLLIYWASTRESGVPDRFTGSGSGTDFTLTVSSVQAEDLALYYCQNAYSFPLTFGAGTKLELK |
